Assay results taken from US20250326814A1 (OPKO BIOLOGICS, published 2025).
Non-standard residues stand in square brackets, D forms with d. No end group written: not given here. *: point of attachment. X2 = Eicosanedioic‑γGlu‑(AEEA)2‑Lys(Ac)‑Gly, CC(=O)NCCCC[C@H](NC(=O)COCCOCCNC(=O)COCCOCCNC(=O)CC[C@H](NC(=O)CCCCCCCCCCCCCCCCCCC(=O)O)C(=O)O)C(=O)NCC(=O)*; Aib = CC(C)(N)C(=O)O

Columns and labels:
Experiment in all cases: cell-based or functional assay
[1] = target: glucagon-like peptide-1 receptor (GLP-1R)
glucagon receptor (GCGR) [2] = target: glucagon receptor (GCGR)
[3] = target: glucagon-like peptide-1 receptor (GLP-1R); remark: listed apart in the source
[4] = target: glucagon-like peptide-1 receptor (GLP-1R); remark: listed apart in the source
glucagon receptor (GCGR) [5] = target: glucagon receptor (GCGR); remark: listed apart in the source
[6] = target: glucagon-like peptide-1 receptor (GLP-1R); remark: listed apart in the source
glucagon receptor (GCGR) [7] = target: glucagon receptor (GCGR); remark: listed apart in the source

Binder | EC50 (nM), GLP-1 activity [3] | % EC50 compare to KPI (GLP1) [4] | Activity fold reduction compared to OPK-88003 KPI (GLP1) [4] | EC50 [nM] GLP1, CBA potency assay [4] | % EC50 compare to KPI (GCGR) (glucagon receptor (GCGR) [5]) | Activity fold reduction compared to OPK-88003 KPI (GCGR) (glucagon receptor (GCGR) [5]) | EC50 [nM] GCGR, CBA potency assay (glucagon receptor (GCGR) [5]) | further results
H[Aib]QGTFTSDYSKYLDSKKAQEFVQWLLN[Aib]GRNRNNIAC(X2)-NH2 [OPK-88604 (modified OXM of Formula XIV)] | 0.09 nM | – | – | – | – | – | – | EC50 (nM) GLP-1R, GLP-1 activity in vitro [1]: 0.0159 nM; EC50 (nM) GCGR, glucagon activity in vitro (glucagon receptor (GCGR) [2]): 0.164 nM
HXQGTFTSDYSKYLDSKKAQEFVQWLLNXGRNRNNIAC (HELM PEPTIDE1{H.[Aib].Q.G.T.F.T.S.D.Y.S.K.Y.L.D.S.K.K.A.Q.E.F.V.Q.W.L.L.N.[Aib].G.R.N.R.N.N.I.A.C.[am]}$$$$V2.0; N-terminus assumed; SMILES CC[C@H](C)[C@H](NC(=O)[C@H](CC(N)=O)NC(=O)[C@H](CC(N)=O)NC(=O)[C@H](CCCNC(=N)N)NC(=O)[C@H](CC(N)=O)NC(=O)[C@H](CCCNC(=N)N)NC(=O)CNC(=O)C(C)(C)NC(=O)[C@H](CC(N)=O)NC(=O)[C@H](CC(C)C)NC(=O)[C@H](CC(C)C)NC(=O)[C@H](Cc1c[nH]c2ccccc12)NC(=O)[C@H](CCC(N)=O)NC(=O)[C@@H](NC(=O)[C@H](Cc1ccccc1)NC(=O)[C@H](CCC(=O)O)NC(=O)[C@H](CCC(N)=O)NC(=O)[C@H](C)NC(=O)[C@H](CCCCN)NC(=O)[C@H](CCCCN)NC(=O)[C@H](CO)NC(=O)[C@H](CC(=O)O)NC(=O)[C@H](CC(C)C)NC(=O)[C@H](Cc1ccc(O)cc1)NC(=O)[C@H](CCCCN)NC(=O)[C@H](CO)NC(=O)[C@H](Cc1ccc(O)cc1)NC(=O)[C@H](CC(=O)O)NC(=O)[C@H](CO)NC(=O)[C@@H](NC(=O)[C@H](Cc1ccccc1)NC(=O)[C@@H](NC(=O)CNC(=O)[C@H](CCC(N)=O)NC(=O)C(C)(C)NC(=O)[C@@H](N)Cc1c[nH]cn1)[C@@H](C)O)[C@@H](C)O)C(C)C)C(=O)N[C@@H](C)C(=O)N[C@@H](CS)C(N)=O) [MOD-604 KPI (mutated OXM analog of any one of SEQ ID NOs: 5 to 7)] | 0.13 nM | 45% | 2.2 fold | 0.282 nM | 72% | 1.4 fold | 0.83 nM | –
H[Aib]QGTFTSDYSKYLDSKKAQEFVQWLLN[Aib]GRNRNNIAC-NH2 (not fully specified (residue 38)) [Variant 2 (Formula XV)] | 0.1 nM | – | – | – | – | – | – | –
H[Aib]QGTFTSDYSKYLDSKKAQEFVQWLLN[Aib]GRNRNNIAC(Eicosanedioic‑γGlu‑Glu‑(AEEA)3‑Lys(Ac)‑Gly)-NH2 [Variant 3 (Formula XVI)] | 0.15 nM | – | – | – | – | – | – | –
HXQGTFTSDYSKYLDSKKAQEFVQWLLNXGRNRNNIACC (Aib at positions 2 and 29; one Eicosanedioic-gGlu-Glu-AEEA-AEEA-AEEA-Lys(Ac-)-Gly-OH binder on Cys38 (Formula XXII, SEQ ID NO: 47) or on Cys39 (Formula XXIII, SEQ ID NO: 48); C-terminal amide (backbone C^38C^39-NH2)) | 0.21 nM | 60% | 1.65 fold | 0.21 nM | 38% | 2.65 fold | 1.6 nM | % EC50 compare to KPI (GLP1), with HSA added (FA-conjugate + HSA) [6]: 8.9%; % EC50 compare to KPI (GLP1), without HSA [6]: 100%; Activity fold reduction compared to OPK-88003 KPI (GLP1), with HSA added (FA-conjugate + HSA) [6]: 11.2 fold; EC50 [nM] GLP1, CBA potency assay, with HSA added (FA-conjugate + HSA) [6]: 2.27 nM; EC50 [nM] GLP1, CBA potency assay, without HSA [6]: 0.2 nM; % EC50 compare to KPI (GCGR), with HSA added (FA-conjugate + HSA) (glucagon receptor (GCGR) [7]): 2.6%; % EC50 compare to KPI (GCGR), without HSA (glucagon receptor (GCGR) [7]): 45%; Activity fold reduction compared to OPK-88003 KPI (GCGR), with HSA added (FA-conjugate + HSA) (glucagon receptor (GCGR) [7]): 38.6 fold; Activity fold reduction compared to OPK-88003 KPI (GCGR), without HSA (glucagon receptor (GCGR) [7]): 2.2 fold; EC50 [nM] GCGR, CBA potency assay, with HSA added (FA-conjugate + HSA) (glucagon receptor (GCGR) [7]): 52.9 nM; EC50 [nM] GCGR, CBA potency assay, without HSA (glucagon receptor (GCGR) [7]): 3.04 nM
